Results on 19 sequences are retold here after the DeepSol protein solubility set.

A short description of this data set: soluble on expression in E. coli; label from the status in PepcDB or PDB records.
Turning to “HRSGGFPVYKNTKVTYFPNGQSKFEEMKKQLLKAEKFIFLEYFIIAEGLMWGEILSILEQKVQEGVEVRVMYDGMLELSTLSFDYAKRLEKIGIKAKVFSPITPFVSTYYNYRDHRKILVIDNKVAFNGGINLADEYINQIERFGYWKDTAVMLEGEGVASFTLMFLQMWSTTNKDYEFAPYLTQNFHEIVANGYVIPYSDSPLDHEKVGENV”, the “soluble on expression in E. coli” value is recorded as “not soluble”. Then “MGSDKIHHHHHHMKVLLIIPAYNEEENILRTIASIETFKQEVTHFQHELDYVVINDGSTDGTKQILEANQINAIHLVLNLGIGGAVQTGYKYALENEYDVAVQFDGDGQHDINSLPILLEPLAEGKCDFSIGSRFIPGNEASFQSTKMRRFGIRLLSFCIRMASGKTIYDVTSGYRAGNRKVIAFFAKRYPTNYPEPESIVHLIKKRFVIVERPVNMMERLGGVSSIRALASVKYMLEVGSAILIAAFMKEGD”, with “not soluble”; and “MGSDKIHHHHHHMIDFHVHTTFSDSTMTPAVAVRHAKMAGYRAVALTDHADHANMDLILRQTLPLARKYSLYAGIEVFAGVELTHVPPALIPEAVREARAMGAQLVLVHGETISDAVETGTNLAAIEGGVDILAHPGLVSDEDAAYAAERGVRFEITTRPGHALTNGHVAMAARRHGVRCVINNDAHHSRDFVNPDHRLAVALGAGLTTAEVTAAEAESRTLLGRLLREVR”, with “not soluble”; and “MEGQQVILHLPLSQKGPFWTWEPSAPRTLLQVLQDPALKDLVLTCPTLPWHSLILRPQYEIQAIMHMRRTIVKIPSTLEVDVEDVTASSRHVHFIKPLLLSEVLAWEGPFPLSMEILEVPEGRPIFLSPWVGSLQKGQRLCVYGLASPPWRVLASSKGRKVPRHFLVSGGYQGKLRRRPREFPTAYDLLGAFQPGRPLRVVATKDCEGEREENPEFTSLAVGDRLEVLGPGQAHGAQGSDVDVLVCQRLSDQAGEDEEEECKEEAETQSGSCCPSTSLAVSWRRLEHHHHHH”, with “not soluble”. As for “STTGLVTPGDVIGKATEFKAGKGAYVNDATIYASLTGTCRIVSPLPESIDQRAIVEVTGHKAHGPIPETGSVVIARVTKVMTKMAAVDILCVGSKAVRENFAGVIRQQDVRATEIDKVDMHQSFHAGDIVRAMVLSLGDARAYYLSTAKNELGVVSAESAAGETMVPISWTEMQCPLSGQTEQRKVAKVGN”, the “soluble on expression in E. coli” value is listed as “soluble”. With “MSEAAQTLDGWYCLHDFRTIDWSAWKTLPNEEREAAISEFLALVDQWETTESEKQGSHAVYTIVGQKADILFMILRPTLDELHEIETALNKTKLADYLLPAYSYVSVVELSNYLASGSEDPYQIPEVRRRLYPILPKTNYICFYPMDKRRQGNDNWYMLSMEQRRELMRAHGMTGRKYAGKVTQIITGSVGLDDFEWGVTLFSDDALQFKKLVYEMRFDEVSARFGEFGSFFVGTRLPMENVSSFFHV” the entry was “soluble”; with “MMRSHVITHFSMPNIDLHSHSTISDGMLSPSRLLAHAAVRGVNVLALTDHDDIAGLSEASRSAQQENITLIRGVEISVTWHGRTLHILGLGINPEHPPLTEGLKKIRDGRMDRARAIAAQLDKFGIHGSFEGASAQAGISRLIGRTHFARFLVSQGYAKNVKSVFKKYLVKGKPGHVSHVWVSLDEAIGWIRGSGGQAVIAHPARYKLSNDLLEQLLCEFRELGGAGIEVVSSSHTPEQTRQFAALATRMNLYASCGSDYHGPGESYFDLGRLPALPPECTPIWNEWEIPDYAETGATTLNEQSEQTGLQSPGKSV”, “not soluble”; with “MGSDKIHHHHHHMKLNRIPVVFILVLQFLSCMRKDEVLSTDPSDRLEFSEDTVFFDTLFSSVGSITKRLLVYNPGKNKIRISSVTLAGGSNSAYSVIVNGLNGPSISDIDIRGNDSIYVLVKVLIDPSNQDLPFLVSDSILFYTNTNRQKVLLSAYGQDAHFFGKESIACDAVWVNDKPYVLYDTLQVNTGCTLTIQPGCKIYFHTAAALNVRGTLIAQGSSSEPLLFASDKLSKTAQDDRGQWGGLIFQSSSSGNVISWATIRNSSTAIKLFPVIDADTIAELSLDHTFLLHASVRLIDAQEVDLAGSNLVLSDCPKALLKHTAGCGVWKHCTFANYSSGFFREETNLVLGSNMGSLKMYVLNSILWGDKSNEVTANNTPSLSLQSCIWRSAYMGTNTNVITSNPLFSKPSAFDFSLTAGSSAIDLCTGVGVPDDIAAGNRDSTPDAGAYEFK”, “not soluble”.

As for “MLKPEMIEKLNEQMNLELYSSLLYQQMSAWCSYHTFEGAAAFLRRHAQEEMTHMQRLFDYLTDTGNLPRINTVESPFAEYSSLDELFQETYKHEQLITQKINELAHAAMTNQDYPTFNFLQWYVSEQHEEEKLFKSIIDKLSLAGKSGEGLYFIDKELSTLDTQN”, the “soluble on expression in E. coli” value is recorded as “soluble”. For “GKPIRSPGVLLDIDSRRTAEAERDRLNELLQIFTAAVPGVVYAKDLEGRMLVANRGTAELVGKPPEFFIGKTDLEFLDDEQQARVLMETDQRIMQSNVSEQIEEKVNLADGSAAIWLSTKAPLLDRN”, the “soluble on expression in E. coli” value is listed as “not soluble”. With “MGSDKIHHHHHHMTTNCVIVSQRYPPEKGGNASRIHDTAVNLGDEFNVTVLAPSLCYPPGNFERTWKRKQTERDEGVIVHRLWTWQPQRENPSLLRRLPYYVIFALHAALWLVVNFRQYDVVMTSTPPITTGFPGLVAAAIGNPWVIDVRDLWIENSIALGYIQADSPLVKAGRTFQRLALHSADRITVTTETLRDAVGDTYGSELRDRVRVVPNGVDTDRFSSVSTPENNDSRIVYTGNIGSAQALEPCIRAMQHVSSDNALLQLVGDGDEVSRLKSVTERLGLEDRVEFVGLVDRERIPEILDSATVGLAPIKDSPELDYAIPTKLYEYMACSLPVVVTGRGEIKRFTTDTDVGIHTEPDPESIAVAIETLLENPEKRVAMGQDGHRVVSEEYDRQAIAGQLGEVFRTLTVTERRESCTTPDPDHD” the entry was “not soluble”.

Turning to “ALEGTEFARSEGASALASVNPLKTTVEEALSRGWSVKSGTGTEDATKKEVPLGVAADANKLGTIALKPDPADGTADITLTFTMGGAGPKNKGKIITLTRTAADGLWKCTSDQDEQFIPKGCSR”, the “soluble on expression in E. coli” value was “soluble”. With “MSLLEKINSSTCTLRFKNDWLKIFTCPVPSSDFLSFVGVATIDAPQHAVLSLLYDIESATEWVWKTREMRVLQELADDNEGRVVYQVVSAPWPVSDREIISRSTAYKDPETGEVFIKIESLPDFIPETSNCVRVRKLEGAWNILPLSENSCRVVFRLHIEPAGEIPSWLANIAVIDTPYHTLNNMRDMVKREKYKNPVGAPLKESTEGIIRNYNDFITELEHHHHHH” the entry was “soluble”. With “YEPEGNRADYWRFARALYAAGFRAGELAYNCFSYHFTPAGSMMETAAHAVGCTVFPGGTGQTEQQVRAIHDLAPSGYTGTPSFLKLILEKADELGIRLDSLRRALVSGEAFPPSLRDWLAARGIEGYQAYGSADLGMIAFETPAREGLVVGED” the entry was “not soluble”; with “MKKTLLAIVAVSALSACRQAEEGPPPLPRQISDRSVGHYCSMNLTEHNGPKAQIFLNGKPDQPVWFSTIKQMFGYTKLPEEPKGIRVIYVTDMGNVTDWTNPNADTEWMDAKKAFYVIDSGFIGGMGAEDALPFGNKEQAEKFAKDKGGKVVGFDDMPDTYIFK”, “not soluble”; with “RPNVERDAQRRVNIRVTDEIVTALNERRIVMAFEPVVQAVSRAPAFHECLVRMKQDDGELLLAPDIVPVAEKLGLIRLVDHRVLELVVAELAAAPGVELSLNISPDTTMDADWWASIESLLGANPGVAERLIVEITETVAIQDLDDVRGFVNRLKNFGARIAIDDFGAGYTSFRNLRNLGVDIVKIDGAFVQNIARSADDRAFVQTLIDLARRLEIKTVAEWVQDEASAIMLRDWGCDYIQGRLIGLA”, “not soluble”. For the sequence “MLNQSVRFLARRANSQIRRSNLLKTGSLAAQDRGFFFGKRREPRCDLKNQSIVQADGSRKSAWLGDKPLRHESFIGILTTYAGIRRGPTVGGKEMLGKRVMKNGKLEWEWITYEQAFEISDNVSQAIRKLGIEIGDKSNIGIYSKNRPEWVLSDMAIHNFSNVSVPIYDNIPNEDMHYITNLCEIPLMFVDSEDKTTQLIKDKTYLSKSLKYIVQFDKVSDEMKAMAESNNFQLWSFDEFVELGKKHEHRPHAPPTPETLATISFTSGTTGRPKGAMLTHLNLCSTTVACEEFEHVEGELDSYLSYLPLAHVYERHCTLAHFKIGSNFHNFLNKFVEVFFFFKRISSKVTKIFRRIGFSRGDPALLVEDIQALAPRTFACVPRVLGKIYKSVMSQVQDKPVKKMILNSAIAYKLYHYKMTGKATRDTLVDKYILHKIQMILGPNIKQFLIPAAKTDNSSMRFARGAFGIEILELYGLTETSGPTTIQLVGDMLGSVGPPISCTSIKLVDIAELGYFVDENGGEVLVKGHNVTSGYYKDPKATASAFTEDGFMKTGDIGKFTPEGTLQLIDRRDNVLKLPQGEFVAPDLTESLYISSKFVQQICVHGNKEKPWLVAVVVPDPEYLASHANLEHNIEGKTYEELCKIPALAEDVLHALIKFFIWVFAIHLTPIAFSPQNGLTTPTHKNKRTAIAQFFKKQIVEMFDRIEKEEEGTELTTKIENAH”, the “soluble on expression in E. coli” value is reported as “not soluble”.

Take “MPFILRRERSILKTALPPIRDDAVLCPLLPFQSAQLKEVERKHHAGTLSGNPHIQYRKILLHPHTTQSFLHVDEEVVCTSGKLLVLDFVMRFLQRTQHKLLVVCGWTLILDIVETLCGMRGIPYVRLDGRTMVKQREANIRGFNRSVANGNGVVEEAGGGGGDAEGDAATSRPRRNSRQRASTDTTGGPSPNADGRGDEEDGSSLPLATPCCFLISKVAGGAGLNLQAADTVFLLDVDYNPQRDAQALSRVYRVGQSKEVRVFRLIIDHAIEHDIVAIHEAKDDLGRAVVQAGCYDLHSSAHEREAALQGIFRAGALSRLSQQWTTTTRTADDTQGDSGEEEREEAVPSPCASFPPMTFPRCDLKDEGGADSDTEEVGKASPSPAQKSTDLHCVFISGGSGGARAMSSAPRKQVKTEMESEGSGRLADAADGEISVAVAGDVNPQCALLPHRRRRRHISFKLEKDDSEEGGGKAGRGDPAADPAGNARKLANPATAPLLFTAPPPHPSMTAAEVGEAVAAATARVQAPAEHRLAMRERLEEVLLRRKGERHVLEDMFRSV”: the “soluble on expression in E. coli” value is on record as “soluble”. With “MSDESEALLRVDHVKYRKAGDGKSPIGRLALFTDFIEWRDNASPEVFTCKFIRINGQRVSPPHKSKVQLQLILKNEDQATFVFLNPSASKEDLVKERDAVKEALQSALVKHRHRVNELAKSVESQSKQVELQAKQKILQEDRNLEKLYQNLVATKLITPDDFWSDYYQKEGVSEDKIGINGAFLANIVQQEGTNGVRLNLNPEIIQAIYSTYPAGQYWQNRENKKKCKEILKFTIQCEYLTRKISRSENYIQKKNLELVPHEMSEENFWKKFFQSHYFHREREVLPNPKDPFAECVRDDEEEMTKMTAEKIQRKRFDLEHIDDNGLRDFIHKSESQQKSAKTTLIKRCNYLSEKILATSWRSGEAAPTTSAAANQKKGFGVLDRLVAETETRLESEDLATKEAEDEVQIVRISSSAKASQAKYSKPDMTRYKALVTDYFQNSSVEDILHRNEMLLDQQEMETWEMEEAMETDNNEVPPPENWCQSAGDLAKVRDVHSAVREICRQFWKSFPPIDKASEEKLNRMAGTLSKYRDDIRNSDISKENLTHCIQMIDLAVDKFEAYEMKKMK” the entry was “not soluble”.
